Measurements: the supplement of paper PMC9732359
± gives the uncertainty stated by the source.

Assay: protein stability index of a GFP-peptide fusion (yeast GPS) (PSI 1-4); higher = more stable; sorted into four equal gates, so the index is relative within each strain
In short: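 Tiled 17-residue peptides from yeast proteins were fused downstream of GFP on a plasmid that also expresses Cherry, and the pooled library was carried in yeast. Mid-log cultures grown in leucine-free medium were sorted into four equal gates by GFP/Cherry fluorescence ratio. Plasmids from each gate were PCR-amplified and Illumina-sequenced, and reads were assigned to strains by barcodes. Each peptide's protein stability index is the sum, over gates, of the gate's read frequency multiplied by its gate number.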

Row | Sequence | protein stability index (doa10∆) | protein stability index (pdr5∆) | protein stability index (san1∆) | protein stability index (ubr1∆)
1 | RLRALQLYFQKNGAQDL [RRI2] | 1.7 ± 0.06 | 1.95 ± 0.076 | 1.95 ± 0.087 | 2.44 ± 0.044
2 | IVSPQSNKPCMGIVQDT [RPO21] | 1.74 ± 0.064 | 1.68 ± 0.047 | 1.76 ± 0.098 | 1.58 ± 0.046
3 | GMCQLYFWHKIWRKVPG [SNU114] | 1.97 ± 0.064 | 1.8 ± 0.057 | 2.12 ± 0.091 | 2.14 ± 0.048
4 | ETAKKITFHPKIRARSI [SMC2] | 2.91 ± 0.058 | 2.95 ± 0.06 | 2.92 ± 0.045 | 2.85 ± 0.05
5 | PWDTSLEVGRRFSPDED [MCD1] | 3.25 ± 0.14 | 3.44 ± 0.19 | 3.28 ± 0.15 | 3.41 ± 0.17
6 | STSFKNPRRLEIKDGRS [YMR153W/NUP53] | 3.06 ± 0.084 | 3.06 ± 0.09 | 2.83 ± 0.085 | 3.16 ± 0.041
7 | YSTANEYIIAAIRKAPH [RPN3] | 2.82 ± 0.061 | 2.64 ± 0.052 | 2.62 ± 0.042 | 2.62 ± 0.047
8 | PFDMGGYFIINGSEKVL [RPB2] | 2.83 ± 0.14 | 2.28 ± 0.14 | 2.56 ± 0.27 | 2.33 ± 0.16
9 | EKPAVKSYASLLAQLNG [RPT3] | 2.8 ± 0.082 | 2.6 ± 0.097 | 2.81 ± 0.082 | 2.76 ± 0.057
10 | DGIGGLTEQIRELREVI [RPT4] |  | 3.65 ± 0.28 |  | 
11 | ARLEPGTAIGAIGAQSI [RPO31] | 2.76 ± 0.097 | 1.82 ± 0.079 | 1.49 ± 0.14 | 2.39 ± 0.053
12 | GKGPGCGFWQPAWRVWL [PRP8] | 2.58 ± 0.19 |  |  | 2.1 ± 0.19
13 | NVVVKWQGKPVFIRHRT [RIP1] | 3.35 ± 0.25 |  | 3.41 ± 0.07 | 2.88 ± 0.27
14 | NISFYKLHVNWNLNATK [SIN4] | 2.43 ± 0.072 | 2.23 ± 0.077 | 2.18 ± 0.16 | 1.48 ± 0.081
15 | ALQQQQQQQQNQQQQNQ [SWI1] | 2.77 ± 0.062 | 2.97 ± 0.068 | 2.75 ± 0.047 | 2.78 ± 0.079
16 | GAEVDEARINELLSSLE [RPP2B] | 3.16 ± 0.11 | 3.5 ± 0.11 | 3.22 ± 0.077 | 3.21 ± 0.1
17 | WPIVNSKVYFNNQSKEK [RPN12] | 2.87 ± 0.15 | 2.78 ± 0.15 | 2.67 ± 0.21 | 3.03 ± 0.13
18 | SRTGPVFDLCWNSLMYA [RRP43] | 2.64 ± 0.06 | 2.45 ± 0.048 | 2.6 ± 0.048 | 2.41 ± 0.032
19 | SSEIKIYYNELQNKPDA [SIR4] | 2.91 ± 0.23 | 3.3 ± 0.14 | 2.46 ± 0.29 | 3.23 ± 0.087
20 | NGGITNTATNALRPSDI [YOR098C/NUP1] | 2.63 ± 0.13 | 2.69 ± 0.14 | 2.11 ± 0.12 | 2.84 ± 0.12
21 | LTITKAAGANVDNVWAD [RPP1B] | 2.63 ± 0.089 | 2.26 ± 0.063 | 2.78 ± 0.15 | 2.85 ± 0.059
22 | IIQNAQRDAVTLFCCLL [RPO21] | 2.88 ± 0.053 | 2.54 ± 0.055 | 2.53 ± 0.051 | 2.44 ± 0.046
23 | QILSTVVEDKPLLSKKE [SMB1] | 1.15 ± 0.061 | 1.19 ± 0.042 | 1.19 ± 0.12 | 1.48 ± 0.054
24 | ESSDFGAIILTKMDGHA [SRP54] | 2.42 ± 0.1 | 2.74 ± 0.094 | 2.91 ± 0.11 | 2.8 ± 0.077
25 | CPNSTGAELRSVCTEAG [RPT1] | 1.54 ± 0.053 | 1.56 ± 0.058 | 1.65 ± 0.098 | 1.55 ± 0.047
26 | KLYVDAVHSIIALSRRF [YDL116W/NUP84] | 2.01 ± 0.077 | 1.81 ± 0.065 | 1.82 ± 0.12 | 1.93 ± 0.064
27 | SILKRHSFAVLLHERKL [NUT1] | 2.19 ± 0.12 | 2.13 ± 0.078 | 2.26 ± 0.18 | 2.45 ± 0.1

Row | Sequence | protein stability index (doa10∆) | protein stability index (pdr5∆) | protein stability index (san1∆) | protein stability index (ubr1∆)
28 | LEPSGSYWGYKGAATGK [PRE10] | 2.37 ± 0.27 |  |  | 2.37 ± 0.16
29 | NYESVFTYNKFLLNQNK [YIL149C/MLP2] | 1.47 ± 0.045 | 1.92 ± 0.049 | 2.24 ± 0.1 | 2.26 ± 0.049
30 | RSLGLQQVVCIFSYGPH [POP6] | 1.51 ± 0.028 | 1.7 ± 0.037 | 1.57 ± 0.049 | 1.64 ± 0.026
31 | TQTEELKFMAASEVATH [PRP8] | 2.38 ± 0.084 | 2.48 ± 0.08 | 2.35 ± 0.081 | 2.66 ± 0.066
32 | AKSLLKLQLGQLYESGN [COR1] | 2.97 ± 0.12 | 3.27 ± 0.13 | 2.99 ± 0.1 | 3.01 ± 0.087
33 | SQEMVPRYFSEAINGFK [SIR3] | 2.99 ± 0.079 | 3.01 ± 0.088 | 3.14 ± 0.058 | 2.94 ± 0.054
34 | LKSAENSGKQQYYRGLP [SWP82] | 2.25 ± 0.1 | 2.24 ± 0.067 | 2.25 ± 0.21 | 2.75 ± 0.068
35 | SHFSPDIKAAVDDSMEL [ITC1] | 2.27 ± 0.096 | 2.44 ± 0.12 | 1.9 ± 0.15 | 2.48 ± 0.079
36 | EENDLQQKLNTRMQRGH [REC8] | 3.17 ± 0.12 | 3.14 ± 0.078 | 3.2 ± 0.22 | 3.4 ± 0.048
37 | NDFFIIYYTPAFFHLFA [YJL039C/NUP192] | 1.41 ± 0.058 | 1.57 ± 0.043 | 1.62 ± 0.073 | 1.58 ± 0.042
38 | NSFKLFKAEKLQIVNQL [RPC17] | 2.82 ± 0.077 | 2.32 ± 0.076 | 1.85 ± 0.16 | 2.13 ± 0.056
39 | DLEKTERIVVSYEYYNI [SMC2] | 2.76 ± 0.073 | 2.6 ± 0.073 | 2.71 ± 0.074 | 2.67 ± 0.045
40 | WADIFAKALDGQNLKDL [RPP1A] | 3.08 ± 0.11 | 3.31 ± 0.13 | 2.58 ± 0.24 | 2.94 ± 0.2
41 | TFSSSISTYISTDELVG [POP8] | 3.02 ± 0.087 | 2.93 ± 0.057 | 2.9 ± 0.072 | 3.02 ± 0.069
42 | KKLATRPKCGDCGSALQ [RPL34A] | 2.52 ± 0.12 | 2.88 ± 0.16 | 2.31 ± 0.16 | 2.89 ± 0.12
43 | EEEDAKNPLFSYVEPVL [RPL31A] | 2.88 ± 0.042 | 2.63 ± 0.036 | 2.12 ± 0.047 | 2.21 ± 0.026
44 | IKEELTKLIISGQLNFE [PCI8] | 3.29 ± 0.15 | 3.19 ± 0.15 | 2.54 ± 0.26 | 2.99 ± 0.088
45 | MDFANLWVFQAFTCFCI [SRB8] | 1.55 ± 0.054 | 1.2 ± 0.043 | 1.16 ± 0.08 | 1.21 ± 0.042
46 | TNSHYNNTNTDNVSGLT [SNF2] | 3.19 ± 0.062 | 3.31 ± 0.046 | 3.37 ± 0.044 | 3.25 ± 0.034
47 | QRKKQIAFPQRKYAIKA [RPL35A] | 1.25 ± 0.059 | 1.51 ± 0.078 | 1.1 ± 0.17 | 1.23 ± 0.062
48 | HFTSPIRRYCDVVAHRQ [DIS3] | 2.04 ± 0.082 | 2.21 ± 0.066 | 2.06 ± 0.1 | 1.84 ± 0.073
49 | LQNKPDAKKARFWSFMK [SIR4] | 2.55 ± 0.098 | 2.68 ± 0.13 | 2.61 ± 0.093 | 2.17 ± 0.19
50 | IVTPVEKAVEEKPAVKS [RPT3] | 2.6 ± 0.1 | 3.07 ± 0.064 | 3.17 ± 0.051 | 3.13 ± 0.086
51 | TDNMSGRGLWNPSYPGM [YJL039C/NUP192] | 3.14 ± 0.26 | 3.11 ± 0.18 |  | 2.84 ± 0.26
52 | DPRIAPLRGALATYGLT [FAS2] | 2.37 ± 0.1 | 2.51 ± 0.16 | 2.38 ± 0.13 | 2.04 ± 0.056
53 | EKSQEVEYVDPTVNRVP [RPN7] |  |  |  | 3.74 ± 0.27
54 | NRDRSFQLLEPLSTYNK [PGD1] | 3 ± 0.051 | 2.95 ± 0.062 | 2.93 ± 0.053 | 2.72 ± 0.045
